# Laboratory results as given in patent publication US20240010747A1, “ANTI-MRP4 (ENCODED BY ABCC4 GENE) ANTIBODIES AND USES THEREOF” (Kenjockety Biotechnology, Inc., priority 2020, published 2024).
# B1: C4.1059 (antibody, V domains shown)
# VH: QVQLLQSGAALVKPGASVKMSCKPSGYTFTDYWVSWVKQSHGKSLEWIGEIYPNNGATNFNEKFKGKATLTVDKSTSTAYMELSRLTSEDSAIYYCPSRKYGYNWNFDYWGQGTMVTVSS
# VL: DIVLTQSPALAVSLGQRATISCWASQSVSISRYNLMHWYQQKPGQQPKLLIYRASNLASGIPARFSGSGSGTDFTLTINPVQADDIATYYCQQSGESPWTFGGGTKLELK
# B2: C4.1139 (antibody, V domains shown)
# VH: EVQLVESDGGLVQPGRSLKLSCAASGFTFSDYYMAWVRQAPTKGLYWVASISYDGSTTYYRDSVKGRFTISRDNAKSTLYLQMGSLRSEDTATYYCARLSIRYKGVMDAWGRGASVTVSS
# VL: DVVMTQSPSNLAASPGESVSINCKASKSIGKFLAWYQQKPGRPNKLLIYSGSTLQSGTPSRFSGSGSGTDFTLTIRNLEPGDFGLYYCQHHIEYPPTFGPGTKLELK
# B3: C4.1148 (antibody, V domains shown)
# VH: EVQLVESDGGLVQPGRSLKLSCAASGFTFSDYYMAWVRQAPPKGLEWVATISYDAFTTYYRDSVKGRFTISRDNAKTILFLQMDSLRSEDTATYYCIRLSTRYKGVMDAWGHGASVTVSS
# VL: DIQMTQSPSNLAASPGESVSINCKASETIYKYLAWYQQKPGRTNKLLIYSGSTLQSGTPSRFSGSGSGTDFTLTIRNLEPEDFGRYYCQHHVEYPPTFGAGTKLELK
# Tested on: cynomolgus ABCC4
# Assay: Flow cytometry (FACS) binding to C6 cells stably transfected to express cynomolgus ABCC4 (different experiment, different C6.cC4 cell line, Table 4)
# Parameters: key to Cynomolgus ABCC4 binding: Negative (−)=Rmax (MFI) below background level; Positive (+)=MFI>3× background level
# Conditions: different C6.cC4 cell line, C6 cells stably transfected to express cynomolgus ABCC4, FACS; Table 4
# How it was run: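 Murine C6 cells stably expressing FLAG-tagged human or cynomolgus ABCC4 incubated 30 min on ice with antibodies, either 5 ug/mL or serially diluted from 100 ug/mL, in PBS+2% FBS+0.02% azide. Detection with PE anti-human IgG F(ab′)2 by flow cytometry; EC50 at half-maximal MFI; negative below background, positive >3× background.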
row,Molecule,Cynomolgus ABCC4 binding
1,B1,−
2,B2,−
3,B3,−

# Target: T1, human ABCC4 (human, UniProt O15439 1-1325)
# T1 construct: Expressed on murine C6 cells stably transfected with human ABCC4 cDNA with C-terminal FLAG tag; also called MRP4; Multidrug resistance protein 4; not shown: C-terminal fused FLAG tag
# T1 sequence: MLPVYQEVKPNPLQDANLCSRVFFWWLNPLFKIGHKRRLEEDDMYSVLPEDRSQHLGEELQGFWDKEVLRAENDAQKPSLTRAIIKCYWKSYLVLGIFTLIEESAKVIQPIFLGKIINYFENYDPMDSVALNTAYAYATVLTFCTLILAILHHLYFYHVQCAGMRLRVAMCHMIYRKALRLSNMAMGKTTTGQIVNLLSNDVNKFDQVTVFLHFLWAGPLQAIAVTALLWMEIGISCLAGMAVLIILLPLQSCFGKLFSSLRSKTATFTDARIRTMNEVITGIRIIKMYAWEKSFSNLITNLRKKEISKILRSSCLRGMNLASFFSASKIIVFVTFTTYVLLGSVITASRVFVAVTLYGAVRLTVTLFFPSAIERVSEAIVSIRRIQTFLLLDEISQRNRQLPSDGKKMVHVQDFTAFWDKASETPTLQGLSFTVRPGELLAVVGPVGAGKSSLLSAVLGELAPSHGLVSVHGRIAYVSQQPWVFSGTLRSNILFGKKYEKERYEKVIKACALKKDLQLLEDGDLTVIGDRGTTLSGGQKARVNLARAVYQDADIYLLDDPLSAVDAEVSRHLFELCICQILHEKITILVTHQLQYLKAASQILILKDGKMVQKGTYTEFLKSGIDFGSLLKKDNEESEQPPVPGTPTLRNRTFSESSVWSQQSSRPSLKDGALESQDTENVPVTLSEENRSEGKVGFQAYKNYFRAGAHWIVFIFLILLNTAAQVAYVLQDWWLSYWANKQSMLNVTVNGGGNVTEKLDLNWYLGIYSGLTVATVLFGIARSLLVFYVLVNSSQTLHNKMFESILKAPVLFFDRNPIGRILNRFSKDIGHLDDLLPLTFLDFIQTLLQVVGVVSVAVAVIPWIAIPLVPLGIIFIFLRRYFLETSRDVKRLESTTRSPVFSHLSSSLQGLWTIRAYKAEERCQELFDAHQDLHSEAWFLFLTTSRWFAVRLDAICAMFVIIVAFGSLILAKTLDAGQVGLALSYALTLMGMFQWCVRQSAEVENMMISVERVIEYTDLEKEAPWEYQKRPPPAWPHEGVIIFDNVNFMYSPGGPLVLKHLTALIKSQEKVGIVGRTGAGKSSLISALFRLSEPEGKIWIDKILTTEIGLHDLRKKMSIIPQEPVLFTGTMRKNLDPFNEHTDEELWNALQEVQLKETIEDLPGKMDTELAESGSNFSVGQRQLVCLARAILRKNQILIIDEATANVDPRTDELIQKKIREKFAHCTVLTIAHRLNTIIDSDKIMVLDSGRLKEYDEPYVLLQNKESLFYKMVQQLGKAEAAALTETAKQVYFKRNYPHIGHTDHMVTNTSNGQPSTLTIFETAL
# Assay: FACS, C6 cells stably expressing human ABCC4; + = MFI>3x background
# Conditions: not given
# Description: Antibody binding to cells was evaluated by flow cytometry. Murine C6 cells stably transfected to express human or cynomolgus ABCC4 were washed once in flow cytometry buffer (PBS+2% FBS+0.02% sodium azide), resuspended at 2×10\hat{ }6 cells/mL in flow cytometry buffer, and dispensed into 96-well microtiter plates at 0.1 mL/well. Recombinant antibodies were added to cells at 5 ug/mL for initial binding confirmation, or serially diluted from 100 ug/mL in flow cytometry buffer. After incubating cells on ice for 30 min, cells were washed twice with flow cytometry buffer. Bound antibody was detected with PE-labeled F(ab′)₂ fragment goat anti-human IgG (Jackson ImmunoResearch) and evaluated on an Attune N×T flow cytometer. EC50 is calculated to be the concentration of antibody that gives half maximal response.
row,Molecule,binding result
1,B1,binds
2,B2,binds
3,B3,binds
